Target: T1, Mouse recombinant EMMPRIN (mrEMMPRIN) (Mus musculus, UniProt P18572)
T1 construct: mrEMMPRIN is a chimeric protein composed of the extracellular portion of EMMPRIN fused to the Fc portion of human IgG; purchased R&D Systems
Experiment: Indirect ELISA, specificity of the antibodies to EMMPRIN
Details: mrEMMPRIN 200 ng/ml coat; OD of Fc binding subtracted; n=4
Experimental: Indirect ELISA: This assay was developed to determine the specificity of the polyclonal antibodies for the EMMPRIN protein. Mouse recombinant EMMPRIN (mrEMMPRIN, 200 ng/ml in PBS, R&D Systems) or the Fc portion of the human IgG were applied on wells of a 96-well plate and incubated at 4° C. overnight to coat the wells. Excess antigens were removed by washing three times with wash buffer (0.05% Tween-20 in PBS), followed by blocking of the remaining free protein-binding sites with blocking buffer (1% BSA in PBS) for 2 hours at room temperature. After additional washes, strips of mouse recombinant EMMPRIN or Fc were coated with each of the primary antibodies (immune or pre-immune sera) diluted 1:500 and 1:5000 in PBS, and incubated for 2 hours at room temperature. […] The reaction was stopped with stop solution (0.25M HCL), and the absorbance of each well was measured at 450 nm and at a reference of 540 nm. […]
The specificity and ability of the antibodies to recognize mrEMMPRIN in its native structure were also tested by indirect ELISA, using mrEMMPRIN (200 ng/ml) or human IgG Fc protein (hFC, 200 ng/ml) to coat 96-well plates. […] P values were calculated by the Mann-Whitney T test. **, p<0.01, relative to pre-immune sera. […]

T1 sequence (P18572 with tags, fused parts or gaps isoform P18572-2 limits assumed): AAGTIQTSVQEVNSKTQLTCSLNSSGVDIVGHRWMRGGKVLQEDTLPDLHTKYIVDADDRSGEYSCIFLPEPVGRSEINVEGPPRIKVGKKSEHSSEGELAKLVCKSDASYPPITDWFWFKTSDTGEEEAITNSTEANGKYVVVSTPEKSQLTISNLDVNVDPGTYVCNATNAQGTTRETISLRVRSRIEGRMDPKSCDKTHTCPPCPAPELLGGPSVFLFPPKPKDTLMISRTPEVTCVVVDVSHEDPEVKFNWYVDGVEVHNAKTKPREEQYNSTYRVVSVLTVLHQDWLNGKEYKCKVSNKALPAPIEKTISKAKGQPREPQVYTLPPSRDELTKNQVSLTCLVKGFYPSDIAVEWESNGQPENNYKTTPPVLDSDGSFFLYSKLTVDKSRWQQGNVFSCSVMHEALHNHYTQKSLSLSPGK

- Immune sera (OD values, indirect ELISA): 0.052 ± 0.026
Sequence: GHRWMRGGKVLC [Peptide 161, 12aa peptide from the EC-I domain of mouse EMMPRIN]
